Measured values published in publication PMC7329128.

Columns and labels:
Assay in all cases: flow cytometry on cells
[1] = target: soluble HCMV glycoprotein trimer gH/gL/gO-sfGFP, strain TB40/E; settings: 1/3 dilution of medium containing gH/gL/gO-sfGFP, read off a plot
[2] = target: membrane-anchored HCMV trimer (full-length gH, gL-FLAG, gO-8his), strain Merlin, on Expi293F cells, Q6SW67;F5HCH8; settings: read at 100 nM soluble PDGFR-Fc (highest concentration); parent: est. 0.98; read off a plot
[3] = target: membrane-anchored HCMV trimer (full-length gH, gL-FLAG, gO-8his), strain TB40/E, on Expi293F cells; settings: fitted curve read at 100 nM soluble PDGFR-Fc (right end of the x axis); parent: est. 1.2; read off a plot
[4] = + 100 nM PDGF competitor, parent: est. 0.33
[5] = w/o competitor, parent: est. 1.0

Substance | ratio to parent [1, 4] | ratio to parent [1, 5] | ratio to parent [2] | ratio to parent [3]
myc-tagged human PDGFRα (wild type) on Expi293F cells (from UniProt P16234-1) L137K | 0.85 | 0.82 |  | 
myc-tagged human PDGFRα (wild type) on Expi293F cells (from UniProt P16234-1) L137Q | 0.71 | 0.9 |  | 
myc-tagged human PDGFRα (wild type) on Expi293F cells (from UniProt P16234-1) V242K | 0.94 | 0.9 |  | 
myc-tagged human PDGFRα (wild type) on Expi293F cells (from UniProt P16234-1) V242T | 0.84 | 0.83 |  | 
myc-tagged human PDGFRα (wild type) on Expi293F cells (from UniProt P16234-1) Y206S | 0.82 | 0.85 |  | 
soluble PDGFRα-Fc (wild type, redesigned fusion to human IgG1 Fc) (from UniProt P16234-1) V242K |  |  | 1 | 1.1
soluble PDGFRα-Fc (wild type, redesigned fusion to human IgG1 Fc) (from UniProt P16234-1) Y206S |  |  | 0.45 | 0.76
